Measured values from US20200017549A1, “NOVEL a4B7 PEPTIDE ANTAGONISTS” (Protagonist Therapeutics, Inc., priority 2013, published 2020).
Bridge positions count the residues as written; N and C are the ends. Square brackets hold non-standard residues; d marks the D form. Ends that are not written are not given here. NMeR = CN[C@@H](CCCNC(=N)N)C(=O)O

Target: T1, recombinant human integrin α4β7 (Homo sapiens, UniProt P13612+P26010)
T1 construct: purchased R&D Systems 5397-A30
T1 sequence (P13612 34-970 limits assumed): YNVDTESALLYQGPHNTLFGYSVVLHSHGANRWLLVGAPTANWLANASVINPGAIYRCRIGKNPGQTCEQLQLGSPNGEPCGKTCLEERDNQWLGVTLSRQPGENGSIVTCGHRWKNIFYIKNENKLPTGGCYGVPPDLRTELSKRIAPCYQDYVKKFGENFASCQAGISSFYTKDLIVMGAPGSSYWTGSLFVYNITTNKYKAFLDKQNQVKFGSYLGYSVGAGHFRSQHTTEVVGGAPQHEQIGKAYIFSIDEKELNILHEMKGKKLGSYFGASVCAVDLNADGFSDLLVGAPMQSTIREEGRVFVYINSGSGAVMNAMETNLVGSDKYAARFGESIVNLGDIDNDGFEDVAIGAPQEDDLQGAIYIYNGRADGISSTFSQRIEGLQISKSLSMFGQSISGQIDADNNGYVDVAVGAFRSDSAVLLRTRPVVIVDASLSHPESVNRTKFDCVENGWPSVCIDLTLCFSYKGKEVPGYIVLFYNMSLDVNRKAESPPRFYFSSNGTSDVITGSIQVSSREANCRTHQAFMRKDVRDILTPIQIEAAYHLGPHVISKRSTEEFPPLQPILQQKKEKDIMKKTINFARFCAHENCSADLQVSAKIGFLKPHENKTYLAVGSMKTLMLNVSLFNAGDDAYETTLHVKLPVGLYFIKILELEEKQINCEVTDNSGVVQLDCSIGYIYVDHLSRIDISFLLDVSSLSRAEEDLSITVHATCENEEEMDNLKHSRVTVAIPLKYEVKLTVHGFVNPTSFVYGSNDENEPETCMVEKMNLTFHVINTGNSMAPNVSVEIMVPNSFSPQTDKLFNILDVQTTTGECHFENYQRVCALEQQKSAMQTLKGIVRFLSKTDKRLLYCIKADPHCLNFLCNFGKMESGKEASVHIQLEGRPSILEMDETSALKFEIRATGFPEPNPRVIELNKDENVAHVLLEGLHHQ
T1 sequence (P26010 20-723 limits assumed): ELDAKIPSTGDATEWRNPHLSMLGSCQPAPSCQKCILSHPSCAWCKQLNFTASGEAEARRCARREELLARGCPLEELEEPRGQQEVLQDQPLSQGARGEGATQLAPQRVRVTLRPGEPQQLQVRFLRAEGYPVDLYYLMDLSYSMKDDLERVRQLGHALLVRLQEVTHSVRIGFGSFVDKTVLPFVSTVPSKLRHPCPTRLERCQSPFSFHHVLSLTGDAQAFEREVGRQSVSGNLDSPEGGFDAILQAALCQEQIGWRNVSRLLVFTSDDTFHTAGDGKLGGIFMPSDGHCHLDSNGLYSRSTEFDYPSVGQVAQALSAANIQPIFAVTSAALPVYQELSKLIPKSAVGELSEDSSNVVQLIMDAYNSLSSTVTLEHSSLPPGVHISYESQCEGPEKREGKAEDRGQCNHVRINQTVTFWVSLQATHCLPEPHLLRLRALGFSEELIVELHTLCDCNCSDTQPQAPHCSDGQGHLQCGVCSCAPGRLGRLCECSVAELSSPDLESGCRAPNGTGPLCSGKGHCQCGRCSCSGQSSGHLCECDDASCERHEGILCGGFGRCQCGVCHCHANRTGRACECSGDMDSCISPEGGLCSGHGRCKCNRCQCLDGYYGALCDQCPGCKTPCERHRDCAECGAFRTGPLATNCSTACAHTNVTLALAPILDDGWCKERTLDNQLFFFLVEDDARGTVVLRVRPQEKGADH
Assay: α4β7-MAdCAM Competition ELISA
Assay type: binding
Details: N-Me-Arg substituted, as compared to SEQ ID NO:39
Description: α4β7-MAdCAM Competition ELISA
A nickel coated plate (Pierce # 15442) was coated with recombinant human integrin α4β7 (R&D Systems #5397-A30) at 800 ng/well and incubated at room temperature with shaking for 1 hr. The solution was then remove by shaking and blocked with assay buffer (50 mM Tris-HCl pH7.6, 150 mM NaCl, 1 mM MnCl2, 0.05% Tween-20 and 0.5% BSA) at 250 ul/well. The plate was then incubated at room temperature for 1 hr. Each well was washed 3 times with wash buffer (50 mM Tris-HCl pH7.6, 100mM NaCl, 1 mM MnCl2, 0.05% Tween-20). To each well was added 25 ul of a serial dilution (3-fold dilutions in assay buffer) of peptides starting at 20 μM. 25 ul of recombinant human MAdCAM-1 (R&D Systems #6056-MC) was then added to each well at a fixed concentration 20 nM. The final starting peptide concentration was 10 μM, and the final MAdCAM-1 concentration was 10 nM. The plates were then incubated at room temperature for 1 hr to reach binding equilibrium. The wells were then washed three times with wash buffer. 50 ul of mouse anti-human IgG1-HRP (Invitrogen # A10648) diluted in 1:2000 in assay buffer was then added to each well. The wells were incubated at room temperature for 45 min with shaking. The wells were then washed 3 times with wash buffer. […] The reaction was stopped with 2N H2SO4 and absorbance was read at 450 nm.

Substance: SEQ ID NO: 48: integrin antagonist peptide substituted with N-Me-Arg (C[NMeR]SDTLCK; disulfide 1-7)
- potency for α4β7 in ELISA: increased potency
